Data on 44 molecules can be found in patent US20210388087A1 (Chugai, published 2021).

Substitutions are numbered along the chain they refer to.

The chains are these.
B1: CE115HA000/GLS3000 P95E (antibody, IgG1, name in Kabat numbering, V domains shown)
VH: QVQLVESGGGVVQPGRSLRLSCAASGFTFSNAWMHWVRQAPGKGLEWVAQIKAKSNNYATYYAESVKGRFTISRDDSKNSLYLQMNSLKTEDTAVYYCRYVHYGAYYGVDAWGQGTTVTVSS
VL: DIVMTQSPLSLPVTPGEPASISCRSSQSLVHSNRNTYLHWYQQKPGQAPRLLIYKVSNRFSGVPDRFSGSGSGTDFTLKISRVEAEDVGVYYCGQGTQVEYTFGQGTKLEIK
notes: one-arm IgG1
B2: CE115HA000/GLS3000 R29Y (antibody, IgG1, name in Kabat numbering, V domains shown)
VH: B1 VH
VL: B1 VL with R34Y, E100P
notes: one-arm IgG1
B3: CE115HA000/GLS3000 R29L (antibody, IgG1, name in Kabat numbering, V domains shown)
VH: B1 VH
VL: B1 VL with R34L, E100P
notes: one-arm IgG1
B4: CE115HA000/GLS3000 Q93A (antibody, IgG1, name in Kabat numbering, V domains shown)
VH: B1 VH
VL: B1 VL with Q98A, E100P
notes: one-arm IgG1
B5: CE115HA000/GLS3000 Q27L (antibody, IgG1, name in Kabat numbering, V domains shown)
VH: B1 VH
VL: B1 VL with Q27L, E100P
notes: one-arm IgG1
B6: CE115HA000/GLS3000 P95S (antibody, IgG1, name in Kabat numbering, V domains shown)
VH: B1 VH
VL: B1 VL with E100S
notes: one-arm IgG1
B7: CE115HA000/GLS3000 R29A (antibody, IgG1, name in Kabat numbering, V domains shown)
VH: B1 VH
VL: B1 VL with R34A, E100P
notes: one-arm IgG1
B8: CE115HA000/GLS3000 Q93S (antibody, IgG1, name in Kabat numbering, V domains shown)
VH: B1 VH
VL: B1 VL with Q98S, E100P
notes: one-arm IgG1
B9: CE115HA000/GLS3000 R29G (antibody, IgG1, name in Kabat numbering, V domains shown)
VH: B1 VH
VL: B1 VL with R34G, E100P
notes: one-arm IgG1
B10: CE115HA000/GLS3000 Q90Y (antibody, IgG1, name in Kabat numbering, V domains shown)
VH: B1 VH
VL: B1 VL with Q95Y, E100P
notes: one-arm IgG1
B11: CE115HA000/GLS3000 R29V (antibody, IgG1, name in Kabat numbering, V domains shown)
VH: B1 VH
VL: B1 VL with R34V, E100P
notes: one-arm IgG1
B12: CE115HA000/GLS3000 Q27D (antibody, IgG1, name in Kabat numbering, V domains shown)
VH: B1 VH
VL: B1 VL with Q27D, E100P
notes: one-arm IgG1
B13: CE115HA000/GLS3000 R54D (antibody, IgG1, name in Kabat numbering, V domains shown)
VH: B1 VH
VL: B1 VL with R59D, E100P
notes: one-arm IgG1
B14: CE115HA000/GLS3000 R29P (antibody, IgG1, name in Kabat numbering, V domains shown)
VH: B1 VH
VL: B1 VL with R34P, E100P
notes: one-arm IgG1
B15: CE115HA000/GLS3000 Q90S (antibody, IgG1, name in Kabat numbering, V domains shown)
VH: B1 VH
VL: B1 VL with Q95S, E100P
notes: one-arm IgG1
B16: CE115HA000/GLS3000 R24A (antibody, IgG1, name in Kabat numbering, V domains shown)
VH: B1 VH
VL: B1 VL with R24A, E100P
notes: one-arm IgG1
B17: CE115HA000/GLS3000 R24T (antibody, IgG1, name in Kabat numbering, V domains shown)
VH: B1 VH
VL: B1 VL with R24T, E100P
notes: one-arm IgG1
B18: CE115HA000/GLS3000 Q90D (antibody, IgG1, name in Kabat numbering, V domains shown)
VH: B1 VH
VL: B1 VL with Q95D, E100P
notes: one-arm IgG1
B19: CE115HA000/GLS3000 R24D (antibody, IgG1, name in Kabat numbering, V domains shown)
VH: B1 VH
VL: B1 VL with R24D, E100P
notes: one-arm IgG1
B20: CE115HA000/GLS3000 Q93Y (antibody, IgG1, name in Kabat numbering, V domains shown)
VH: B1 VH
VL: B1 VL with Q98Y, E100P
notes: one-arm IgG1
B21: CE115HA000/GLS3000 R24Q (antibody, IgG1, name in Kabat numbering, V domains shown)
VH: B1 VH
VL: B1 VL with R24Q, E100P
notes: one-arm IgG1
B22: CE115HA000/GLS3000 P95G (antibody, IgG1, name in Kabat numbering, V domains shown)
VH: B1 VH
VL: B1 VL with E100G
notes: one-arm IgG1
B23: CE115HA000/GLS3000 R29D (antibody, IgG1, name in Kabat numbering, V domains shown)
VH: B1 VH
VL: B1 VL with R34D, E100P
notes: one-arm IgG1
B24: CE115HA000/GLS3000 R24E (antibody, IgG1, name in Kabat numbering, V domains shown)
VH: B1 VH
VL: B1 VL with R24E, E100P
notes: one-arm IgG1
B25: CE115HA000/GLS3000 Q27P (antibody, IgG1, name in Kabat numbering, V domains shown)
VH: B1 VH
VL: B1 VL with Q27P, E100P
notes: one-arm IgG1
B26: CE115HA000/GLS3000 Q90P (antibody, IgG1, name in Kabat numbering, V domains shown)
VH: B1 VH
VL: B1 VL with Q95P, E100P
notes: one-arm IgG1
B27: CE115HA000/GLS3000 R24P (antibody, IgG1, name in Kabat numbering, V domains shown)
VH: B1 VH
VL: B1 VL with R24P, E100P
notes: one-arm IgG1
B28: CE115HA000/GLS3000 Q93R (antibody, IgG1, name in Kabat numbering, V domains shown)
VH: B1 VH
VL: B1 VL with Q98R, E100P
notes: one-arm IgG1
B29: CE115HA000/GLS3000 Q93E (antibody, IgG1, name in Kabat numbering, V domains shown)
VH: B1 VH
VL: B1 VL with Q98E, E100P
notes: one-arm IgG1
B30: CE115HA000/GLS3000 Q27E (antibody, IgG1, name in Kabat numbering, V domains shown)
VH: B1 VH
VL: B1 VL with Q27E, E100P
notes: one-arm IgG1
B31: CE115HA000/GLS3000 R54A (antibody, IgG1, name in Kabat numbering, V domains shown)
VH: B1 VH
VL: B1 VL with R59A, E100P
notes: one-arm IgG1
B32: CE115HA000/GLS3000 R24Y (antibody, IgG1, name in Kabat numbering, V domains shown)
VH: B1 VH
VL: B1 VL with R24Y, E100P
notes: one-arm IgG1
B33: CE115HA000/GLS3000 R54E (antibody, IgG1, name in Kabat numbering, V domains shown)
VH: B1 VH
VL: B1 VL with R59E, E100P
notes: one-arm IgG1
B34: CE115HA000/GLS3000 R29S (antibody, IgG1, name in Kabat numbering, V domains shown)
VH: B1 VH
VL: B1 VL with R34S, E100P
notes: one-arm IgG1
B35: CE115HA000/GLS3000 Q27R (antibody, IgG1, name in Kabat numbering, V domains shown)
VH: B1 VH
VL: B1 VL with Q27R, E100P
notes: one-arm IgG1
B36: CE115HA000/GLS3000 R24G (antibody, IgG1, name in Kabat numbering, V domains shown)
VH: B1 VH
VL: B1 VL with R24G, E100P
notes: one-arm IgG1
B37: CE115HA000/GLS3000 R29T (antibody, IgG1, name in Kabat numbering, V domains shown)
VH: B1 VH
VL: B1 VL with R34T, E100P
notes: one-arm IgG1
B38: CE115HA000/GLS3000 P95L (antibody, IgG1, name in Kabat numbering, V domains shown)
VH: B1 VH
VL: B1 VL with E100L
notes: one-arm IgG1
B39: CE115HA000/GLS3000 R24S (antibody, IgG1, name in Kabat numbering, V domains shown)
VH: B1 VH
VL: B1 VL with R24S, E100P
notes: one-arm IgG1
B40: CE115HA000/GLS3000 Q93P (antibody, IgG1, name in Kabat numbering, V domains shown)
VH: B1 VH
VL: B1 VL with Q98P, E100P
notes: one-arm IgG1
B41: CE115HA000/GLS3000 Q93D (antibody, IgG1, name in Kabat numbering, V domains shown)
VH: B1 VH
VL: B1 VL with Q98D, E100P
notes: one-arm IgG1
B42: CE115HA000/GLS3000 Q90E (antibody, IgG1, name in Kabat numbering, V domains shown)
VH: B1 VH
VL: B1 VL with Q95E, E100P
notes: one-arm IgG1
B43: CE115HA000/GLS3000 R29I (antibody, IgG1, name in Kabat numbering, V domains shown)
VH: B1 VH
VL: B1 VL with R34I, E100P
notes: one-arm IgG1
B44: CE115HA000/GLS3000 Q90A (antibody, IgG1, name in Kabat numbering, V domains shown)
VH: B1 VH
VL: B1 VL with Q95A, E100P
notes: one-arm IgG1

The target of this experiment is T1, CD3 epsilon homodimer protein (UniProt P07766 23-126).
T1 construct: also called CD3 (CD3 epsilon)
T1 sequence (P07766 23-126): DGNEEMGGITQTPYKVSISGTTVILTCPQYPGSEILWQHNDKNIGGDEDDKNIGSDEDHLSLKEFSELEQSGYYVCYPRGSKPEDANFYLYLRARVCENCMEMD
The experiment is described as follows: SPR, antibody over immobilised CD3e homodimer.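 Note: SPR at 25 °C with CD3 epsilon homodimer amine-coupled to a CM4 sensor chip and antibody flowed over as analyte in HBS-EP+ running buffer.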
On to B1, for which the “KD ratio to GLS3000” value amounted to 1.01.
The same measure for B2: 1.08; for B3: 0.9; for B4: 0.65.
The same measure for B5: 0.86.
Under B6 stands 1.19; under B7, 1.15.
As for B8, the “KD ratio to GLS3000” value worked out at 0.75.
With B9, the “KD ratio to GLS3000” value stood at 0.62.
Under B10 stands 38.3; under B11, 2.25.
Under B12 stands 0.89; under B13, 1.8.
As to B14, the “KD ratio to GLS3000” value was found to be 14.
Under B15 stands 0.96.
Under B16 stands 1; under B17, 1.03; under B18, 11.1.
The same measure for B19: 0.83; for B20: 0.76; for B21: 0.87.
For B22, the “KD ratio to GLS3000” value was determined as 1.94.
Under B23 stands 1.58.
The same measure for B24: 0.89; for B25: 2.16.
With B26, the “KD ratio to GLS3000” value was 15.9.
The same measure for B27: 0.34; for B28: 0.79.
Under B29 stands 1.05.
The same measure for B30: 0.99; for B31: 0.85.
Take B32: the “KD ratio to GLS3000” value stood at 0.94.
The same measure for B33: 0.84; for B34: 1.05.
The same measure for B35: 1.06.
Under B36 stands 0.92; under B37, 1.02; under B38, 11.7.
Regarding B39, the “KD ratio to GLS3000” value turned out to be 0.97.
The same measure for B40: 39.5; for B41: 0.72.
The same measure for B42: 0.91.
The same measure for B43: 1.6.
Turning to B44, the “KD ratio to GLS3000” value turned out to be 0.89.
